In patent US20230357341A1:

T1: cat EPOR expressed on Ba/F3 cells (BaF3/cat EPOR) (cat)
T1 sequence: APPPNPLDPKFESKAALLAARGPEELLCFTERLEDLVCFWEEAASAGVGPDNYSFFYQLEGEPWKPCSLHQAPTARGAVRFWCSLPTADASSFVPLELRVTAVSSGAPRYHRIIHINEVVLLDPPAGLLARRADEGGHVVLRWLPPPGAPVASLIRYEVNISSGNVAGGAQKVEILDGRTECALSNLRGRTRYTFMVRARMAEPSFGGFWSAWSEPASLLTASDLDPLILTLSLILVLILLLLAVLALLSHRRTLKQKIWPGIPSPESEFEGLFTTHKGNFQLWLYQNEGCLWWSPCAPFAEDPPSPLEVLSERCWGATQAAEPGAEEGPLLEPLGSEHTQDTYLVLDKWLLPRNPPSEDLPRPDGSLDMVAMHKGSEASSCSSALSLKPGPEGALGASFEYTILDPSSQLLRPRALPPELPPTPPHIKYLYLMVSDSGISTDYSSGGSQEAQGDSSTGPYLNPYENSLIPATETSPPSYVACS

T2: mouse EPOR expressed on Ba/F3 cells (BaF3/mouse EPOR) (mouse) (UniProt P14753)
T2 sequence: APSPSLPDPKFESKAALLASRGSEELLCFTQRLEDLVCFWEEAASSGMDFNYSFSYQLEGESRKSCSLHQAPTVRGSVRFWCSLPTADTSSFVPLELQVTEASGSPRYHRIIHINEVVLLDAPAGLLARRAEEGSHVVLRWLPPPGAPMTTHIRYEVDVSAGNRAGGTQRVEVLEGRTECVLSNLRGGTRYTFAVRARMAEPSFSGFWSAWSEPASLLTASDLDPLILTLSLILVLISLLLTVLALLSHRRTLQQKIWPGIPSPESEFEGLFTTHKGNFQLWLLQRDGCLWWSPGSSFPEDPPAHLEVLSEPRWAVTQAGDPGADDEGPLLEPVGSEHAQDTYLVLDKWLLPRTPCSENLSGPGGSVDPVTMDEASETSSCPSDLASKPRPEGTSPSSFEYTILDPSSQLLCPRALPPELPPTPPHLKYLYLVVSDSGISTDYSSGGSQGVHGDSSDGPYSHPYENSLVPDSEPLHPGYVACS


Columns and labels:
[1] = target: T1, cat EPOR expressed on Ba/F3 cells (BaF3/cat EPOR) (cat)
[2] = target: T2, mouse EPOR expressed on Ba/F3 cells (BaF3/mouse EPOR) (mouse)

Row | Molecule | EC50 (read off the curve), BaF3/cat EPOR cell proliferation [1] [nM] | EC50 (read off the curve), BaF3/mouse EPOR cell proliferation [2] [nM]
1 | human EPO (PeproTech) (from UniProt P01588 28-193) (ligand) | 0.02 | –
2 | wild-type cat EPO-His (fusion protein of cat EPO and His tag) (from UniProt P33708 27-192) (ligand) | 0.03 | 0.04

The remaining lines, values ahead:

Row | EC50 (read off the curve), BaF3/cat EPOR cell proliferation [1] [nM] | EC50 (read off the curve), BaF3/mouse EPOR cell proliferation [2] [nM] | Molecule
3 | 0.02 | 0.05 | cat EPO-Fc (C165R cat EPO-siCFV3) of Examples 12 and 13 (Fc fusion, not shown: small tags and cut ends) APPRLICDSRVLERYILEAREAENVTMGCAEGCSFSENITVPDTKVNFYTWKRMDVGQQAVEVWQGLALLSEAILRGQALLANSSQPSETLQLHVDKAVSSLRSLTSLLRALGAQKEATSLPEATSAAPLRTFTVDTLRKLFRIYSNFLRGKLTLYTGEACRRGDRPPEMRRGPKIFIFPPKPKDTLSISRTPEVTCLVVDLGPDDSDVQITWFVDNTQVYTAKTSPREEQFNSTYRVVSVLPILHQDWLKGKEFKCKVNSKSLPSPIERTISKAKGQPHEPQVYVLPPAQEELSRNKVSVTCLIKSFHPPDIAVEWEITGQPEPENNYRTTPPQLDSDGTYFVYSKLSVDRSHWQRGNTYTCSVLHEALHAHHTRKELTQSPGK
4 | – | 0.05 | wild-type mouse EPO-His (fusion protein of mouse EPO and His tag) (ligand) APPRLICDSRVLERYILEAKEAENVTMGCAEGPRLSENITVPDTKVNFYAWKRMEVEEQAIEVWQGLSLLSEAILQAQALLANSSQPPETLQLHIDKAISGLRSLTSLLRVLGAQKELMSPPDTTPPAPLRTLTVDTFCKLFRVYANFLRGKLKLYTGEVCRRGDRGAAHHHHHHHHH
